1 protein from patent US20230074277A1 (BUEHLMANN LABORATORIES, published 2023) can be followed below.

This data set concerns the molecule itself. Kind of data set: size exclusion chromatography, buffer A + 2 mM CaCl2. The source says:
FIG. 9: Site-directed mutagenesis of the SEQ-ID NO:3 fusion protein and its consequences. A previously described mutation (EP3248015 A1) that impairs heterotetramerization of S100A8/S100A9, namely E78A in the S100A9 polypeptide chain, was introduced into the fusion protein. This E78A mutant remains monomeric, even in the presence of CaCl₂.
Site directed mutagenesis was used to introduce the mutation E78A in the S100A9 chain (see EP3248015 A1) of the fusion protein (SEQ ID NO:3). In endogenous calprotectin, this mutation abrogates […] (Leukert N et al. Calcium-dependent tetramer formation of S100A8 and S100A9 is essential for biological activity (2006). J. Mol. Biol. 359: 961-972). Similary, introduction of this mutation into the fusion protein (SEQ-ID NO:3) prevented CaCl₂) dependent dimerization. The S200 size exclusion chromatography of the mutated and non-mutated fusion proteins (SEQ ID NO:3) in buffer A containing 2 mM CaCl₂) was performed as described in Examples 1 and 3 (FIG. 9).
(In gel filtration, larger molecules generally elute earlier.)

B1: recombinant fusion polypeptide (SEQ ID NO:3) (other)
chain: MHHHHHHLEVLFQGPMTCKMSQLERNIETIINTFHQYSVKLGHPDTLNQGEFKELVRKDLQNFLKKENKNEKVIEHIMEDLDTNADKQLSFEEFIMLMARLTWASHEKMHEGDEGPGHHHKPGLGEGTPLEVLFQGPMLTELEKALNSIIDVYHKYSLIKGNFHAVYRDDLKKLLETECPQYIRKKGADVWFKELDINTDGAVNFQEFLILVIKMGVAAHKKSHEESHKE
notes: Single polypeptide, monomer 26.8 kDa, equal to an S100A8/S100A9 heterodimer; It dimerizes in 2 mM CaCl2, equal to the heterotetramer; also called rCAL (Mrp14-Mrp8 fusion)
In the case of B1, the binding result was “binds”.
